{
  "source": "paper PMC4632850",
  "about": "(Protein Science : A Publication of the Protein Society, 2015)",
  "binders": {"B1": {"name": "DNA-binding domain of human FoxP1 (domain or fragment)", "chain": "AEVRPPFTYASLIRQAILESPEKQLTLNEIYNWFTRMFAYFRRNAATWKNAVRHNLSLHKCFVRVENVKGAVWTVDEVEFQKRRPQKISGNPSL"}, "B2": {"name": "yeast 14-3-3 protein Bmh1 (natural protein)", "chain": "MSTSREDSVYLAKLAEQAERYEEMVENMKTVASSGQELSVEERNLLSVAYKNVIGARRASWRIVSSIEQKEESKEKSEHQVELICSYRSKIETELTKISDDILSVLDSHLIPSATTGESKVFYYKMKGDYHRYLAEFSSGDAREKATNASLEAYKTASEIATTELPPTHPIRLGLALNFSVFYYEIQNSPDKACHLAKQAFDDAIAELDTLSEESYKDSTLIMQLLRDNLTLWTSDMSESGQAEDQQQQQQHQQQQPPAAAEGEAPK"}, "B3": {"name": "human HtrA3 lacking the N-terminal domain (enzyme)", "chain": "GLHQLSSPRYKFNFIADVVEKIAPAVVHIELFLRHPLFGRNVPLSSGSGFIMSEAGLIITNAHVVSSNSAAPGRQQLKVQLQNGDSYEATIKDIDKKSDIATIKIHPKKKLPVLLLGHSADLRPGEFVVAIGSPFALQNTVTTGIVSTAQREGRELGLRDSDMDYIQTDAIINYGNSGGPLVNLDGEVIGINTLKVTAGISFAIPSDRITRFLTEFQDKQIKDWKKRFIGIRMRTITPSLVDELKASNPDFPEVSSGIYVQEVAPNSPSQRGGIQDGDIIVKVNGRPLVDSSELQEAVLTESPLLLEVRRGNDDLLFSIAPEVVM"}},
  "key": {"[1]": {"molecular_target": "the molecule itself"}, "[2]": {"molecular_target": "T1, phosphorylated neutral trehalase Nth1 (pNth1) (Saccharomyces cerevisiae, UniProt P32356 1-751, phosphorylated (sites not given))", "T1 sequence": "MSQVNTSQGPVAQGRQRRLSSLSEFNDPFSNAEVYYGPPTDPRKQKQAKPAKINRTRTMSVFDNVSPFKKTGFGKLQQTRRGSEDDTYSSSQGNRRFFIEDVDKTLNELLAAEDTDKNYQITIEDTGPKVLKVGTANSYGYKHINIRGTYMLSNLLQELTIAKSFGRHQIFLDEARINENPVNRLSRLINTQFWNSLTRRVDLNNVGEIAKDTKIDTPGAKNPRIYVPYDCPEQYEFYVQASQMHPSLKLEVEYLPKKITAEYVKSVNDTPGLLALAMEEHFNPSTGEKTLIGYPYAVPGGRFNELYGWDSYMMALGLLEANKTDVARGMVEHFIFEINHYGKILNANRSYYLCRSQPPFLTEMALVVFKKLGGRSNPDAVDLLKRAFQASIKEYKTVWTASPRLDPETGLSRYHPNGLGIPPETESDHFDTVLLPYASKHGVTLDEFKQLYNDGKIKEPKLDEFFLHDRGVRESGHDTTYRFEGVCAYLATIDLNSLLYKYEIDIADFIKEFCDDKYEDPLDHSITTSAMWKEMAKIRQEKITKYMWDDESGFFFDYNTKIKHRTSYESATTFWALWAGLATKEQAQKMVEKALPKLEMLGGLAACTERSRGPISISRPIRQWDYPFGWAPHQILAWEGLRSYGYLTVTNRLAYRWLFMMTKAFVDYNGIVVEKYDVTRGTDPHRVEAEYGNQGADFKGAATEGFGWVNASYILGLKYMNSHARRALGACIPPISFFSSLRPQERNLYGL", "test": "SAXS"}, "SEC": {"molecular_target": "the molecule itself", "test": "SEC"}},
  "data": [
    {"binder": "B1", "values": [
      {"measurement": "dH (dimer dissociation, van't Hoff)", "setting": "[1]", "value": 23.1, "unit": "kcal•mol‐1"}
    ]},
    {"binder": "B2", "values": [
      {"measurement": "binding result", "setting": "[2]", "value": "binds"}
    ]},
    {"binder": "B3", "values": [
      {"measurement": "stoichiometry N", "setting": "SEC", "value": 3}
    ]}
  ]
}
